The values below come from US20060240053.

Consider “GST-SASPase C27 mutant E/D (aspartic acid No. 212 substituted to glutamic acid)”, for which the “autocleavage in acetate buffer pH 4.5, SDS-PAGE over time” value is “The mutated forms (A/D) and (E/D), for their part, do not autoactivate”.

As for “GST-SASPase C27 mutant A/D (aspartic acid No. 212 substituted to alanine)”, the “autocleavage in acetate buffer pH 4.5, SDS-PAGE over time” value is “The mutated forms (A/D) and (E/D), for their part, do not autoactivate”.
